{"source": "patent US7074595B2", "about": "“General means of labeling protein by using wheat embryo cell-free protein synthesis system” (CellFree Sciences Co., Ltd., priority 2000, dated 2006)", "type_in_all_cases": "biochemical", "key": {"[1]": {"substrate": "NC(=O)C1=CN([C@@H]2O[C@H](COP(=O)(O)OP(=O)(O)OC[C@H]3O[C@@H](n4cnc5c(N)ncnc54)[C@H](OP(=O)(O)O)[C@@H]3O)[C@@H](O)[C@H]2O)C=CC1", "experiment": "enzymatic properties of DHFR (Table 1): Michaelis constant and maximum velocity, Met-DHFR", "details": "other: Met-DHFR", "method": "(§1) Purification of GFP and measurement of its activity by analysis of fluorescence spectrum using a fluorospectrophotometer were carried out in accordance with a method by Deschamps, et al. [Deschamps, J. R. et al., (1995) Protein Expression and Purification, 6, 555–558]. In the measurement of fluorescence spectrum, a fluorophotometer of type RF-5000 by Shimadzu was used. DHFR activity was measured by a method of Stanley, et al. [Methods. Enzymol. 18, 195–199 (1971)].\n(§2) Then enzymatic properties of the selenomethionine-containing proteins purified as such were investigated biochemically. Fluorescence emission spectrum of a certain concentration of the purified GFP preparation shown in FIG. 2 excited at the wavelength of 395 nm was measured within a range of 410 nm to 600 nm and the result is shown in FIG. 3. As will be apparent from FIG. 3, there is no difference between the fluorescence emission spectra of GFP [(A) in FIG. 3] and selenomethionine GFP [(B) in FIG. 3]. Thus, the conclusion is that the change in GFP activity by substituting methionine residue with selenomethionine is not higher than the usual measurement sensitivity. […]"}, "[2]": {"substrate": "NC(=O)C1=CN([C@@H]2O[C@H](COP(=O)(O)OP(=O)(O)OC[C@H]3O[C@@H](n4cnc5c(N)ncnc54)[C@H](OP(=O)(O)O)[C@@H]3O)[C@@H](O)[C@H]2O)C=CC1", "experiment": "enzymatic properties of DHFR (Table 1): Michaelis constant and maximum velocity, SeMet-DHFR", "details": "other: SeMet-DHFR", "method": "as §1, §2"}, "[3]": {"substrate": "NC(=O)C1=CN([C@@H]2O[C@H](COP(=O)(O)OP(=O)(O)OC[C@H]3O[C@@H](n4cnc5c(N)ncnc54)[C@H](OP(=O)(O)O)[C@@H]3O)[C@@H](O)[C@H]2O)C=CC1", "experiment": "enzymatic properties of DHFR (Table 2): Michaelis constant and maximum velocity, Natural-Type DHFR", "details": "other: Natural-Type DHFR", "method": "as §1\nThen enzymatic properties of the purified heavy hydrogen-labeled DHFR were biochemically investigated by the same manner as in Example 1. As will be apparent from Table 2, both Vmax and Michaelis constant (Km) to NADPH which are parameters for enzymatic chemical property of natural-type DHFR and heavy hydrogen-labeled DHFR show no difference between both enzymes. Thus, it became clear that DHFR comprising heavy hydrogen-labeled amino acids maintained nearly the same enzymatic activity as the natural-type DHFR."}, "[4]": {"substrate": "NC(=O)C1=CN([C@@H]2O[C@H](COP(=O)(O)OP(=O)(O)OC[C@H]3O[C@@H](n4cnc5c(N)ncnc54)[C@H](OP(=O)(O)O)[C@@H]3O)[C@@H](O)[C@H]2O)C=CC1", "experiment": "enzymatic properties of DHFR (Table 2): Michaelis constant and maximum velocity, Heavy Hydrogen-Labeled DHFR", "details": "other: Heavy Hydrogen-Labeled DHFR", "method": "as §1\nWith regard to the wheat embryo, that being contaminated with substantially no endosperm component prepared by the method mentioned in Example 1 was used. Preparation of an extract from wheat embryo was carried out by the exactly same method as Example 1 except that the solution for extraction and the solution used for gel filtration contained 20 kinds of heavy hydrogen-labeled L-amino acids instead of 20 kinds of selenomethionine-containing L-amino acids. Concentration of the prepared extract was adjusted to 170˜250 A260 nm (A260/A280=1.5).\nAlthough the composition of the protein synthesis reaction solution is as same as that described in Example 1, it contains 20 kinds of heavy hydrogen-labeled L-amino acids instead of 20 kinds of selenomethionine-containing L-amino acids.\nThen enzymatic properties of the purified heavy hydrogen-labeled DHFR were biochemically investigated by the same manner as in Example 1. […]"}}, "data": [{"protein": "dihydrofolate reductase (DHFR), natural-type methionine-containing (Met-DHFR) (Escherichia coli K-12) (protein, made in house; host or cells: wheat embryo extract cell-free protein synthesis (dialysis type)) MISLIAALAVDRVIGMENAMPWNLPADLAWFKRNTLNKPVIMGRHTWESIGRPLPGRKNIILSSQPGTDDRVTWVKSVDEAIAACGDVPEIMVIGGGRVYEQFLPKAQKLYLTHIDAEVEGDTHFPDYEPDDWESVFSEFHDADAQNSHSYCFEILERR", "values": [{"measurement": "Km", "setting": "[1]", "value": 11.2, "unit": "µM"}]}, {"protein": "dihydrofolate reductase (DHFR), selenomethionine-containing (SeMet-DHFR) (Escherichia coli K-12) (protein, made in house; host or cells: wheat embryo extract cell-free protein synthesis (dialysis type)) MISLIAALAVDRVIGMENAMPWNLPADLAWFKRNTLNKPVIMGRHTWESIGRPLPGRKNIILSSQPGTDDRVTWVKSVDEAIAACGDVPEIMVIGGGRVYEQFLPKAQKLYLTHIDAEVEGDTHFPDYEPDDWESVFSEFHDADAQNSHSYCFEILERR", "values": [{"measurement": "Km", "setting": "[2]", "value": 10.2, "unit": "µM"}]}, {"protein": "dihydrofolate reductase (DHFR), Natural-Type DHFR (Escherichia coli K-12) (protein, made in house; host or cells: wheat embryo extract cell-free protein synthesis (dialysis type)) MISLIAALAVDRVIGMENAMPWNLPADLAWFKRNTLNKPVIMGRHTWESIGRPLPGRKNIILSSQPGTDDRVTWVKSVDEAIAACGDVPEIMVIGGGRVYEQFLPKAQKLYLTHIDAEVEGDTHFPDYEPDDWESVFSEFHDADAQNSHSYCFEILERR", "values": [{"measurement": "Km", "setting": "[3]", "value": 13.2, "unit": "µM"}]}, {"protein": "dihydrofolate reductase (DHFR), Heavy Hydrogen-Labeled DHFR (20 kinds of heavy hydrogen-labeled L-amino acids) (Escherichia coli K-12) (protein, made in house; host or cells: wheat embryo extract cell-free protein synthesis (dialysis type)) MISLIAALAVDRVIGMENAMPWNLPADLAWFKRNTLNKPVIMGRHTWESIGRPLPGRKNIILSSQPGTDDRVTWVKSVDEAIAACGDVPEIMVIGGGRVYEQFLPKAQKLYLTHIDAEVEGDTHFPDYEPDDWESVFSEFHDADAQNSHSYCFEILERR", "values": [{"measurement": "Km", "setting": "[4]", "value": 14.7, "unit": "µM"}]}]}
